Measurements published in PMC4729467, “Kinetic Characterization of 100 Glycoside Hydrolase Mutants Enables the Discovery of Structural Features Correlated with Kinetic Constants” (PLoS ONE, 2016).

Substrate: O=[N+]([O-])c1ccc(O[C@@H]2O[C@H](CO)[C@@H](O)[C@H](O)[C@H]2O)cc1
Assay: purified protein
[1] = enzyme storage buffer (HEPES elution buffer), ten biological replicates

Row | Protein | Km [1] | kcat [1] | Km (enzyme storage buffer) | kcat (enzyme storage buffer) | kcat/Km (enzyme storage buffer)
1 | β-glucosidase B (BglB) (Paenibacillus polymyxa) (protein) MSENTFIFPATFMWGTSTSSYQIEGGTDEGGRTPSIWDTFCQIPGKVIGGDCGDVACDHFHHFKEDVQLMKQLGFLHYRFSVAWPRIMPAAGIINEEGLLFYEHLLDEIELAGLIPMLTLYHWDLPQWIEDEGGWTQRETIQHFKTYASVIMDRFGERINWWNTINEPYCASILGYGTGEHAPGHENWREAFTAAHHILMCHGIASNLHKEKGLTGKIGITLNMEHVDAASERPEDVAAAIRRDGFINRWFAEPLFNGKYPEDMVEWYGTYLNGLDFVQPGDMELIQQPGDFLGINYYTRSIIRSTNDASLLQVEQVHMEEPVTDMGWEIHPESFYKLLTRIEKDFSKGLPILITENGAAMRDELVNGQIEDTGRHGYIEEHLKACHRFIEEGGQLKGYFVWSFLDNFEWAWGYSKRFGIVHINYETQERTPKQSALWFKQMMAKNGF | 5.0 ± 0.2 mM | 14.7 ± 0.167 s⁻¹ | – | – | –
2 | β-glucosidase B (BglB) (Paenibacillus polymyxa; R243A) (protein) MSENTFIFPATFMWGTSTSSYQIEGGTDEGGRTPSIWDTFCQIPGKVIGGDCGDVACDHFHHFKEDVQLMKQLGFLHYRFSVAWPRIMPAAGIINEEGLLFYEHLLDEIELAGLIPMLTLYHWDLPQWIEDEGGWTQRETIQHFKTYASVIMDRFGERINWWNTINEPYCASILGYGTGEHAPGHENWREAFTAAHHILMCHGIASNLHKEKGLTGKIGITLNMEHVDAASERPEDVAAAIRADGFINRWFAEPLFNGKYPEDMVEWYGTYLNGLDFVQPGDMELIQQPGDFLGINYYTRSIIRSTNDASLLQVEQVHMEEPVTDMGWEIHPESFYKLLTRIEKDFSKGLPILITENGAAMRDELVNGQIEDTGRHGYIEEHLKACHRFIEEGGQLKGYFVWSFLDNFEWAWGYSKRFGIVHINYETQERTPKQSALWFKQMMAKNGF | – | – | 19.46 ± 1.17 mM | 184 s⁻¹ | 9430 ± 606 M⁻¹ s⁻¹
3 | β-glucosidase B (BglB) (Paenibacillus polymyxa; E225A) (protein) MSENTFIFPATFMWGTSTSSYQIEGGTDEGGRTPSIWDTFCQIPGKVIGGDCGDVACDHFHHFKEDVQLMKQLGFLHYRFSVAWPRIMPAAGIINEEGLLFYEHLLDEIELAGLIPMLTLYHWDLPQWIEDEGGWTQRETIQHFKTYASVIMDRFGERINWWNTINEPYCASILGYGTGEHAPGHENWREAFTAAHHILMCHGIASNLHKEKGLTGKIGITLNMAHVDAASERPEDVAAAIRRDGFINRWFAEPLFNGKYPEDMVEWYGTYLNGLDFVQPGDMELIQQPGDFLGINYYTRSIIRSTNDASLLQVEQVHMEEPVTDMGWEIHPESFYKLLTRIEKDFSKGLPILITENGAAMRDELVNGQIEDTGRHGYIEEHLKACHRFIEEGGQLKGYFVWSFLDNFEWAWGYSKRFGIVHINYETQERTPKQSALWFKQMMAKNGF | – | – | 0.63 ± 0.15 mM | 1.5 s⁻¹ | 2390 ± 602 M⁻¹ s⁻¹
